Test results as given in the nanobody polyreactivity screen of Harvey et al. (2022).

Test: yeast display, Sf9 membrane polyspecificity reagent, FACS + sequencing; frameworks hold sequencing errors
In short: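 Nanobodies came from a synthetic yeast display library in Saccharomyces cerevisiae BJ5465, induced with galactose for 36–48 hours and stained for 1 hour at 4 °C with 10% biotinylated, detergent-solubilized Sf9 membrane reagent. Cells were enriched on streptavidin microbeads and then FACS-sorted, with low and high (top ~1%) gates set on anti-HA fluorescence for expression and streptavidin fluorescence for reagent binding. Each polyreactivity label reflects the gate a clone came from. Genes were amplified by colony PCR, sequenced by MiSeq 2 × 250 and filtered by CDR length.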

Sequence | polyreactivity (PSR sort gate)
QVQLVESGGGLVQAGGSLRLSCAATGSILVYYAMGWSRQAPGKERELVAAISSGGSTNYADSVKGRFTISRDNAKNTVYLQMNSLKPEDTAVYYCDKESGWVGAIHYDYWGQGTQVTVSS | low polyreactivity
QVQLVESGGGLVQAGGSLRLSCAASGRIFGNYAMGWYRQAPGKERELVAAISGGGSTYYADSVKGRFTISRDNAKNTVYLQMNSLKPEDTAVYYCNAKTYYPPFGYWGQGTQVTVSS | low polyreactivity
QVQLVESGGGLVQAGGSLRLSCAASGRTFRWYPMGWYRHAPGKEREFVARITWSGGRTYYADSVKGRFTISRDNAKNTVYLQMNSLKPEDTADYYCAAYFVGRYRLEYWGQGTQVTVSS | high polyreactivity
QVQLVESGGGLVQAGGSLRLSSAASGFIFEPYAMGWYRQAPGKERELVAAIRWSDGSTFYADSVKGRFTISRDTAKNTVYLQMNSLKPEDSAVYYCNAVYEHRRVGWVTIDYGYWGQGTQVTVSS | low polyreactivity
QFQLVESGGGLVQAGGSLRLSCAASGGILYRYAMGWYRPAPGKERELVAAIRWSGGSTYYADSVKGRFTISRDNAKNTVYLQMNSLKPEDTAVYYCAADVYYYHVLDFDYWGQGTQVTVSS | low polyreactivity
QVQHVESGGGLVQAGGSLRLSCASSGSIFVGNAMGWYRQAPGKERELVAAISRRGGRPYYADSVKGRFTISRDKAKNTVYLQMNSLKPEDTAVYYCAAEYTYQNRIRFDYWGQGTQVTVSS | high polyreactivity
QVHLVESGGGLVQAGGSLRLSCAATGRTFRSYAMGWYRQAPGKEREFVAAISRSGASTRYPDSVKGRFTISRDIAKTTVYLQMNSLKPEVTAVYYCAAVWPDVRGYDYWGQGTEVTVSS | high polyreactivity
QVQLVESGGGLVQAGGSLRLSCAASGITFVKNAMGWYRQAPGKERELVARIRIGGSTSYADSVKGRFTFSRDNAKNTVYLQMNSLKPEDTAVYYCARYAGRLSYRYEYWGQGTQVTVSS | high polyreactivity
QVQLVESGGGLVQAGGSLRLSCAASGRIFVYNAMGWYRQAPGQERELVAAISRGGSTNYADSVKGRFTISRDNAKNTVYLQMNSLKPEDTAVYYCAADIYQYGYDYWGQGTQVTVSS | low polyreactivity
QVQLVESGGGLVQAGGSLRLSCAASGFTFRYYAMGWYRPAPGKEREFVAAISKSGGTTDYADSVKGRFTISRDNAKNTVYLQMSSLKPEDTAVYYCAKSGGRLWYVWRRYGYWGQGTQVTVSS | high polyreactivity
QVQLVESGGGLVQAGGSLRLSCAASGSIFYHNTMGWYIQAPGKERELITYYADSVKGRFTISRDNAKNTVYLQMNSLKPEDTAVYYCAASPVSRTGPGDYDFWGQGTQVTVSS | low polyreactivity
QVQLVESGGGLVQAGGSLRLSCAASGRIFNYYDMGWYRQAPGKEREFVAAISWRGTSTRYADSVKGRFTISRDNAKNTVYLQMNSLKPEDTAVYYCAADDYARRFSFKYDYWGQGTQVTVSS | high polyreactivity
QVQLVESGGGLVQAGGSLRLSCAASGRIFYGYTMGWYRQAPGKERELVARISSSGSTYYADSVKGRFTISRDNAKNTVYLQMNSLKPEDTAVYYCAAVRRRYGYDYWGQGTQVTVSS | high polyreactivity
QVQLVESGGGLVQAGGSLRLICAASGIIFAVYARGCYRQAPGKERELVAAISTSGGRTDYADSVKGRFTISRDNAKNTVYLQMNSLKPEDTAVYYCAAEYVGKGTPDDYDYWGQGTQVTVSS | high polyreactivity
QVQLVESGGGLVQAGGSLRLSCAASGRTFTGYAMGWYRQAPGKEREFVAAITQRGGSTYYADSVKGRFTISRDTAKNTVYLQMNSLKPEDTAVYYCAARRRYKMDYWGQGTQVTVSS | high polyreactivity
QVQLVESGGGLVQEGGSLRLSCAASGRTLHKNVMGWYRQAPGKERELVAAINTGGRTYYADSVKGRFTISRDNAKHTVYLQMNSLKPEDTAVYYCAKEGHVNPRPTVGGDYWGHGTQVTVSS | low polyreactivity
QVQLVESGGGLVQAGGSLRLSCAASGLIFVVYAMGWYRQAPGKERELVAAISRSGGRTYYADSVKGRFTISRDNAKNTVYLQMNSLKPEDTAVYYCAARRYSTTFGRLFDYWGQGTQVTVSS | high polyreactivity
